This is an account of results in patent publication US20100209436.

The subject of data set [1] is human OPA1 splice variant 7.
Data set [2] deals with human OPA1 splice variant 4.
Data set [3] relates to human OPA1 splice variant 8 (A210V polymorphism).
Sequence of human OPA1 splice variant 8 (A210V polymorphism) (chain, as listed by the source A210V): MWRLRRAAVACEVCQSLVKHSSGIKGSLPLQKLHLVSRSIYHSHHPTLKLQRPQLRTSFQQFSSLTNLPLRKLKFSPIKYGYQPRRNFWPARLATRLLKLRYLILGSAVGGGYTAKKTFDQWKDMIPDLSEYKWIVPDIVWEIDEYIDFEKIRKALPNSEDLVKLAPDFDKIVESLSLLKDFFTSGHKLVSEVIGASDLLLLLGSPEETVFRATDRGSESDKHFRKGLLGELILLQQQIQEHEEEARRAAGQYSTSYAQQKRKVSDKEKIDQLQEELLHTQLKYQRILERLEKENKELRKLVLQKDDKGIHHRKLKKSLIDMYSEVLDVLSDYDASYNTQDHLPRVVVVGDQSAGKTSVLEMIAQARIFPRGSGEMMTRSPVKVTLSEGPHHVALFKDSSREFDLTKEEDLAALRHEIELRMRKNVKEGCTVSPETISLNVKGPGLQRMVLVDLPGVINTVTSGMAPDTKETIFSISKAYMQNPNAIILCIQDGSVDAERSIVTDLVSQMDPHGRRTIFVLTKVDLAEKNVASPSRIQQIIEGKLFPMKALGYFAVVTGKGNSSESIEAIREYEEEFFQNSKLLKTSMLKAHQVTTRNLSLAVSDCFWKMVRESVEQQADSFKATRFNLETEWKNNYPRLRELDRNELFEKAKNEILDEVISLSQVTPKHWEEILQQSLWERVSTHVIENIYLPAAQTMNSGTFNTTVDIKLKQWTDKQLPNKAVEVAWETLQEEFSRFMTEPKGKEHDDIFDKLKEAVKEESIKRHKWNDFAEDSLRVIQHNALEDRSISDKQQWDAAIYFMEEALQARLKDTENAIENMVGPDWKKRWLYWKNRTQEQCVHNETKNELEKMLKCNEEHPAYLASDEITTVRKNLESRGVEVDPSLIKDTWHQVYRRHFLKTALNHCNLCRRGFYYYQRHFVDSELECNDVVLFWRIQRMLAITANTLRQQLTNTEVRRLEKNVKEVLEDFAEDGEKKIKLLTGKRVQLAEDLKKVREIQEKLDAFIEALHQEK

Sequence of human OPA1 splice variant 7 (chain, as listed by the source mutant): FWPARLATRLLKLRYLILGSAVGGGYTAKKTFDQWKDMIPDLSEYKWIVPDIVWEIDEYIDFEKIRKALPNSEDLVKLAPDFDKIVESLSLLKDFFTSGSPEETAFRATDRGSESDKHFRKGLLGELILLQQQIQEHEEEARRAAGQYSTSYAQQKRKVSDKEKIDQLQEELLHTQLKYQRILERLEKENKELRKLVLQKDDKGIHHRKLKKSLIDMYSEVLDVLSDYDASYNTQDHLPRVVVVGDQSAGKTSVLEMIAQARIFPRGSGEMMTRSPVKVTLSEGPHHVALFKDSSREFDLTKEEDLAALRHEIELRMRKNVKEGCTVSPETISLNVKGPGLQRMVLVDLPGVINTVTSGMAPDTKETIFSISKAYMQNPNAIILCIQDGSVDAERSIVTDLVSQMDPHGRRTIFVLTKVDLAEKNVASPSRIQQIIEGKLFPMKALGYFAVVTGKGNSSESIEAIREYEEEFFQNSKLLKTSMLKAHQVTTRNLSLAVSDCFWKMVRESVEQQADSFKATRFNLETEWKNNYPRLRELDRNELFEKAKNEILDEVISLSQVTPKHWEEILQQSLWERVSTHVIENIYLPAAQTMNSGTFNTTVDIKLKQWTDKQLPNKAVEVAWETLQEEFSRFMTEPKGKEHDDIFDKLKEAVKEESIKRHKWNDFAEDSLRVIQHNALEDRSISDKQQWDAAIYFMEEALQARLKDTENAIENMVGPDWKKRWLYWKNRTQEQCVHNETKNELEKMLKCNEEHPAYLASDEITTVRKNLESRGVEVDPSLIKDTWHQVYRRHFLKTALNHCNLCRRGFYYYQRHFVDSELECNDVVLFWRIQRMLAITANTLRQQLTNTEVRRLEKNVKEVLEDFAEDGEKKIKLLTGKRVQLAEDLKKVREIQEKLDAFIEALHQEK
Sequence of human OPA1 splice variant 4 (chain, as listed by the source mutant): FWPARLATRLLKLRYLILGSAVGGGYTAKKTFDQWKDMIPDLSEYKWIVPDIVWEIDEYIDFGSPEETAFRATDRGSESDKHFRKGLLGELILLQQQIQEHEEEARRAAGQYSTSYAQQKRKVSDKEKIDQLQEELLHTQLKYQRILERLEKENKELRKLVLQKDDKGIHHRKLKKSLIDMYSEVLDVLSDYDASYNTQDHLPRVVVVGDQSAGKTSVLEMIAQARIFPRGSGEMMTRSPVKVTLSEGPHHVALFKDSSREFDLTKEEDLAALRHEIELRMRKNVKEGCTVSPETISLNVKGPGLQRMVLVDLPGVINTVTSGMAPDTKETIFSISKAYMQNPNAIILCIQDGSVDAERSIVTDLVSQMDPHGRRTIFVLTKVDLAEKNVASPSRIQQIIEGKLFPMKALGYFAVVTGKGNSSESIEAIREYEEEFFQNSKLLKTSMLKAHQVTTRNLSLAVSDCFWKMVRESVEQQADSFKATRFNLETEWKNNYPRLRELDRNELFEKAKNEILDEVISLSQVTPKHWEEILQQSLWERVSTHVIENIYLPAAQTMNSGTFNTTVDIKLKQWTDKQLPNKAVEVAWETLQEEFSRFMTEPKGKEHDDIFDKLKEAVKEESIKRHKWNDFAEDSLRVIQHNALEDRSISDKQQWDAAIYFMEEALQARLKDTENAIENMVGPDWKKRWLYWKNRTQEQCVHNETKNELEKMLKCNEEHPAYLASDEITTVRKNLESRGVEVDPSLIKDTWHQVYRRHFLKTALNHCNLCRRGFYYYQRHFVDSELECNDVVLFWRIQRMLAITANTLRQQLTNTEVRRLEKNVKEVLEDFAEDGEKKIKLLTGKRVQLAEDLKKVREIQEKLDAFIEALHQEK

On to “Afg3l1^E567Q/paraplegin^E575Q complex (murine, both subunits proteolytically inactive)”, for which the “OPA1 processing (western blot, Δyta10Δyta12 yeast)” value in data set [1] was “small OPA1 isoforms were not detected when both, Afg 3l1 and paraplegin, or Afg 3l2 and paraplegin, contained point mutations in their proteolytic centres”.

For the substance “Afg3l2^E574Q/paraplegin^E575Q complex (murine, both subunits proteolytically inactive)”, the “OPA1 processing (western blot, Δyta10Δyta12 yeast)” value in data set [1] was “small OPA1 isoforms were not detected when both, Afg 3l1 and paraplegin, or Afg 3l2 and paraplegin, contained point mutations in their proteolytic centres”.

“hetero-oligomeric Afg3l1^E567Q/paraplegin complex (murine)”: the “OPA1 processing (western blot, Δyta10Δyta12 yeast)” value was “Slight OPA1 processing, in particular formation of S3, was detectable with both the Afg3l2^E567Q/paraplegin complex and the Afg3l1^E567Q/paraplegin complex” in data set [1]; “splice variant 4 was processed only to a very minor extent by the Afg3l2^E567Q/paraplegin complex but not by the Afg3l1^E567Q/paraplegin complex” in data set [2]; “A similar dependency was observed for splice variant 8” in data set [3].

Turning to “hetero-oligomeric Afg3l2^E574Q/paraplegin complex (murine)”, the “OPA1 processing (western blot, Δyta10Δyta12 yeast)” value in data set [1] was “Slight OPA1 processing, in particular formation of S3, was detectable with both the Afg3l2^E567Q/paraplegin complex and the Afg3l1^E567Q/paraplegin complex”; in data set [2], “splice variant 4 was processed only to a very minor extent by the Afg3l2^E567Q/paraplegin complex”; in data set [3] it was “A similar dependency was observed for splice variant 8”.

Consider “homo-oligomeric murine Afg3l2 complex (Yta10 (1-61)-Afg3l2 (36-802)-HA)”, for which the “OPA1 processing (western blot, Δyta10Δyta12 yeast)” value in data set [1] was “expression of each of the murine subunits, Afg3l2 or Afg3l1, in Δyta10Δyta12 cells promoted OPA1 processing; expression of Afg3l2 preferentially led to the formation of the S3 isoform”; in data set [2], “Afg3l1 and Afg3l2 complexes mediated processing of OPA1 splice variants 4 and 8 in a similar manner”; in data set [3] it was “Afg3l1 and Afg3l2 complexes mediated processing of OPA1 splice variants 4 and 8 in a similar manner”.

Turning to “proteolytically inactive murine Afg3l1^E567Q (Yta10 (1-61)-Afg3l1^E567Q (25-789)-Myc)”, in data set [1], the “OPA1 processing (western blot, Δyta10Δyta12 yeast)” value is listed as “Cleavage was abolished when point mutations were introduced in the proteolytic center of Afg3l1 or Afg3l2”.

With “proteolytically inactive murine Afg3l2^E574Q (Yta10 (1-61)-Afg3l2^E574Q (36-802)-HA)”, the “OPA1 processing (western blot, Δyta10Δyta12 yeast)” value in data set [1] was “Cleavage was abolished when point mutations were introduced in the proteolytic center of Afg3l1 or Afg3l2”.
